Measured values reported in patent publication US8404647B2, “Peptidylarginine deiminase (PAD) inhibitors” (Chiralix B.V., priority 2008, dated 2013).
Marks after values point to notes of the source that are not given here. Ends that are not written are not given here.

Tests used:
PAD2 = PAD2 (Homo sapiens, UniProt Q9Y2J8); experiment: Conversion (R to Cit) of substrate peptides by PAD2, mass spectrometry; type: biochemical; conditions: for Conversion by PAD2 (%): Table 10; for Conversion (%): Table 9, PAD2
Chain of PAD2 (Q9Y2J8 whole entry): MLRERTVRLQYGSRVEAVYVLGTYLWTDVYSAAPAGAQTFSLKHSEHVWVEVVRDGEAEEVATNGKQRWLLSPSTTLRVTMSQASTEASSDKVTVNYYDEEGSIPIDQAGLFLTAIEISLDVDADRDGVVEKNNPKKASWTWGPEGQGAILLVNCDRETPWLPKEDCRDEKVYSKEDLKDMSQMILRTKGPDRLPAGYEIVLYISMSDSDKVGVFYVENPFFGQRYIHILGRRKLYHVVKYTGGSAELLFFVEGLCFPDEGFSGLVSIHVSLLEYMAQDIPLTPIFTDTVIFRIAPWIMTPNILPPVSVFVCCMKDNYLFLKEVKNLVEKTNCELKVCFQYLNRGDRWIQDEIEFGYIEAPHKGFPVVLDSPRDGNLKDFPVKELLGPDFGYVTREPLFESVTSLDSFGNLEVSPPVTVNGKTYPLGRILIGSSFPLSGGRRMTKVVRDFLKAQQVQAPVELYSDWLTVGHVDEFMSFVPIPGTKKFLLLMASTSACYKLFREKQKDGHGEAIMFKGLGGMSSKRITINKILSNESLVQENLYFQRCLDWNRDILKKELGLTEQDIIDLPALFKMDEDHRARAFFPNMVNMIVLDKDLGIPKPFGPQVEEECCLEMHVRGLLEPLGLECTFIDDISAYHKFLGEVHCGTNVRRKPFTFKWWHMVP
Experimental: In a similar fashion as for PAD4 we identified improved peptide substrates for PAD2. Again L1 was used as a lead compound. The set of 152 peptides from Table 3 was used and testing was performed as described before.
(§1) Conversion of arginine into citrulline in the substrate peptides by PAD2 or PAD4 using mass spectrometry was performed as follows. A candidate substrate peptide was incubated with a PAD as indicated for several hours at 37° C. The reaction was quenched by the addition with acetic acid. A sample was analysed on a Qtof mass spectrometer (Micromass, UK) and the mass spectrum was compared with that of the same peptide not treated with PAD. Normally, 2^+- and 3^+-ions are detected. The conversion (ΔM=0.98 Da) was calculated on the 2^+- and 3^+-ions individually, and subsequently averaged taking into account the relative peak height of the 2^+- and 3^+-signals (see FIG. 5).

PAD4 = PAD4 (Homo sapiens, UniProt Q9UM07); experiment: Conversion (R to Cit) of substrate peptides by PAD4, mass spectrometry; type: biochemical; conditions: for Conversion (%): PAD4; for Conversion by PAD4 (%): Table 10; for Conversion: Table 7, PAD4, test system with 3 times less enzyme
Chain of PAD4 (Q9UM07 whole entry): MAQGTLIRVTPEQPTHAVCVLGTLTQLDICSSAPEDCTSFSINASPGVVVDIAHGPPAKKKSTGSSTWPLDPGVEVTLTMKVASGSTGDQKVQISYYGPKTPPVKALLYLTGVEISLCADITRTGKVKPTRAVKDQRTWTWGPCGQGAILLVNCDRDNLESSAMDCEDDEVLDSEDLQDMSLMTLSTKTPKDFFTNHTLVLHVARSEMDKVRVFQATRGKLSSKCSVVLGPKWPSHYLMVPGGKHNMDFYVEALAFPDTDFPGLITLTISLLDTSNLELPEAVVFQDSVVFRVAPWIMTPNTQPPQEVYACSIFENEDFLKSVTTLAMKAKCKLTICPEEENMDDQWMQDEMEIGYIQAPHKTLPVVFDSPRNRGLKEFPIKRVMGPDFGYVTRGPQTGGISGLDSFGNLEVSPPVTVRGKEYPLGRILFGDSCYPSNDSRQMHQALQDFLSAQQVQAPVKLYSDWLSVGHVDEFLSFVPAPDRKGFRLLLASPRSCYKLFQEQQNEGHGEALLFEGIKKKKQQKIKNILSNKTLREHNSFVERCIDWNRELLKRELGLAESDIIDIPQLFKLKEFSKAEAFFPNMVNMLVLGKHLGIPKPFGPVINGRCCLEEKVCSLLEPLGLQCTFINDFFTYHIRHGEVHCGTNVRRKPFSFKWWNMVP
Description: From previous studies it was known that D-S-Q-F-A-F-R-G-A-S-A-S-D (designated here as L1: SEQ ID NO: 11) is a substrate for PAD2 and PAD 4. To obtain better substrates, and subsequently powerful inhibitors, we intended to identify structural elements that improve substrate properties. A set of 152 individual analog peptides was generated, each differing from L1 by one amino acid at one of the positions −4 to −1 or 1 to 4.
In Table 3 the conversion of each analog (R to Cit conversion) is depicted. Values of the analogs relate to the conversion of the analog compared to the conversion of L1 under standard conditions (100 means a conversion equal to L1, 50 means conversion of 50% of that of L1, 175 means conversion of 175% of that of L1). Numbers above 100 thus relate to amino acid substitutions that improve substrate properties.
Peptides of table 4 are represented by the following sequences SEQ ID NO: 22-31 and 33-46. Control peptide are represented by the following sequences SEQ ID NO: 11 as control L1 and SEQ ID NO: 32 as control L2. Unfortunately, a substantial number of designed peptides were too polar to be analyzed on our LC-MS system (indicated in Table 4 as n.t., not trapped on the column). We therefore also generated and tested these peptides containing two additional N-terminal F-residues to increase hydrophobicity. In this form peptides were trapped on the column and could be analyzed (see Table 5).
Based on the above results we designed 20 peptides containing multiple amino acids that improve substrate properties (see Table 7). The indicated peptides were synthesized and tested in order to identify the best substrate from this group. Here we used a test system with less enzyme (3 times less) compared to the experiments described above.
as §1

[1] = Table 5, peptides with two additional N-terminal F-residues

| Substance | Conversion by PAD2 (%) (PAD2) | Conversion by PAD4 (%) (PAD4) | Conversion (%) (PAD2) | further results |
| --- | --- | --- | --- | --- |
| D-S-H-K-F-D-R-D-F-I-Y-S-D (DSHKFDRDFIYSD; not fully specified (C-terminus); printed as D-S-H-K-F-D-R-D-F-I-Y-S-D) [Peptide 0608-43] | 90 ** % | 79 |  | Conversion (%) (PAD4; Table 4, 13-mer peptides): 100% |
| D-S-H-K-H-S-R-E-W-L-W-S-D (DSHKHSREWLWSD; not fully specified (C-terminus); printed as D-S-H-K-H-S-R-E-W-L-W-S-D) [Peptide 0608-36] | 97% | 51 |  | Conversion (%) (PAD4; Table 4, 13-mer peptides): 90% |
| D-S-H-K-W-H-R-D-F-F-Y-S-D (DSHKWHRDFFYSD; not fully specified (C-terminus); printed as D-S-H-K-W-H-R-D-F-F-Y-S-D) [Peptide 0608-35] | 92% | 73 |  |  |
| D-S-K-F-A-F-R-G-G-I-A-S-D (DSKFAFRGGIASD; not fully specified (C-terminus); printed as D-S-K-F-A-F-R-G-G-I-A-S-D) [Peptide 0735-41] | 90% | 25 | 90 |  |
| D-S-K-F-H-F-R-Y-A-V-A-S-D (DSKFHFRYAVASD; not fully specified (C-terminus); printed as D-S-K-F-H-F-R-Y-A-V-A-S-D) [Peptide 0735-35] | 92% | <20 | 92 |  |
| D-S-K-F-K-F-R-Y-A-Y-A-S-D (DSKFKFRYAYASD; not fully specified (C-terminus); printed as D-S-K-F-K-F-R-Y-A-Y-A-S-D) [Peptide 0735-34] | 91% | <20 | 91 |  |
| D-S-K-H-F-H-R-D-F-I-Y-S-D (DSKHFHRDFIYSD; not fully specified (C-terminus); printed as D-S-K-H-F-H-R-D-F-I-Y-S-D) [Peptide 0608-23] | 94% | 69 |  |  |
| D-S-K-H-K-S-R-D-F-V-Y-S-D (DSKHKSRDFVYSD; not fully specified (C-terminus); printed as D-S-K-H-K-S-R-D-F-V-Y-S-D) [Peptide 0608-27] | 94% | 69 |  |  |
| D-S-K-H-L-S-R-E-W-M-W-S-D (DSKHLSREWMWSD; not fully specified (C-terminus); printed as D-S-K-H-L-S-R-E-W-M-W-S-D) [Peptide 0608-24] | 95% | 54 |  | Conversion (%) (PAD4; Table 4, 13-mer peptides): 90% |
| D-S-K-K-F-D-R-D-H-L-Y-S-D (DSKKFDRDHLYSD; not fully specified (C-terminus); printed as D-S-K-K-F-D-R-D-H-L-Y-S-D) [Peptide 0708-15] | 90% | 77 |  | Conversion (PAD4): 51 |
| D-S-K-K-F-D-R-G-H-L-Y-S-D (DSKKFDRGHLYSD; not fully specified (C-terminus); printed as D-S-K-K-F-D-R-G-H-L-Y-S-D) [Peptide 0708-30] | 90% | 80 |  | Conversion (PAD4): 63 |
| D-S-K-K-F-H-R-D-F-L-Y-S-D (DSKKFHRDFLYSD; not fully specified (C-terminus); printed as D-S-K-K-F-H-R-D-F-L-Y-S-D) [Peptide 0708-25] | 97% | 64 |  | Conversion (PAD4): 56 |
| D-S-K-K-F-H-R-G-F-L-Y-S-D (DSKKFHRGFLYSD; not fully specified (C-terminus); printed as D-S-K-K-F-H-R-G-F-L-Y-S-D) [Peptide 0708-33] | 100% | 73 |  | Conversion (PAD4): 60 |
| D-S-K-K-F-K-R-D-F-L-F-S-D (DSKKFKRDFLFSD; not fully specified (C-terminus); printed as D-S-K-K-F-K-R-D-F-L-F-S-D) [Peptide 0708-26] | 97% | 35 |  | Conversion (PAD4): 23 |
| D-S-M-C-A-F-R-G-A-K-K-S-D (DSMCAFRGAKKSD) [Peptide 0735-31] |  |  | 59 |  |
| D-S-Q-C-L-F-R-G-A-F-A-S-D (DSQCLFRGAFASD) [Peptide 0735-40] |  |  | 73 |  |

| Substance | Conversion by PAD2 (%) (PAD2) | Conversion by PAD4 (%) (PAD4) | Conversion (%) (PAD2) | further results |
| --- | --- | --- | --- | --- |
| D-S-Q-F-A-F-R-G-A-F-W-S-D (DSQFAFRGAFWSD) [Peptide 0735-30] |  |  | 65 |  |
| D-S-Q-F-A-F-R-H-F-S-A-S-D (DSQFAFRHFSASD) [Peptide 0735-32] |  |  | 85 |  |
| D-S-Q-F-A-H-R-N-A-S-A-S-D (DSQFAHRNASASD) [Peptide 0735-28] |  |  | 35 |  |
| D-S-Q-F-A-Y-R-N-A-K-A-S-D (DSQFAYRNAKASD) [Peptide 0735-36] |  |  | 74 |  |
| D-S-Q-F-K-F-R-G-A-F-A-S-D (DSQFKFRGAFASD) [Peptide 0735-39] |  |  | 80 |  |
| D-S-Q-W-A-F-R-G-A-F-A-S-D (DSQWAFRGAFASD) [Peptide 0735-33] |  |  | 82 |  |
| D-S-Q-W-A-F-R-N-A-F-A-S-D (DSQWAFRNAFASD) [Peptide 0735-38] |  |  | 82 |  |
| D-S-W-K-A-F-R-G-A-S-A-S-D (DSWKAFRGASASD) [Peptide 0735-29] |  |  | 70 |  |
| F-F-D-S-H-K-W-S-R-D-H-F-E-S-D (FFDSHKWSRDHFESD) [Peptide 0612-47] |  |  |  | Conversion (%) (PAD4; [1]): 100% |
| F-F-D-S-K-H-F-H-R-D-F-I-Y-S-D (FFDSKHFHRDFIYSD) [Peptide 0612-25] |  |  |  | Conversion (%) (PAD4; [1]): 100% |
| F-F-D-S-K-H-H-H-R-E-Y-L-F-S-D (FFDSKHHHREYLFSD) [Peptide 0612-28] |  |  |  | Conversion (%) (PAD4; [1]): 100% |
| F-F-D-S-K-H-H-S-R-D-H-L-E-S-D (FFDSKHHSRDHLESD) [Peptide 0612-23] |  |  |  | Conversion (%) (PAD4; [1]): 100% |
| F-F-D-S-K-H-K-D-R-E-Y-V-F-S-D (FFDSKHKDREYVFSD) [Peptide 0612-24] |  |  |  | Conversion (%) (PAD4; [1]): 100% |
| F-F-D-S-K-H-W-D-R-D-H-F-E-S-D (FFDSKHWDRDHFESD) [Peptide 0612-27] |  |  |  | Conversion (%) (PAD4; [1]): 100% |
| F-F-D-S-K-K-H-D-R-D-F-L-Y-S-D (FFDSKKHDRDFLYSD) [Peptide 0612-33] |  |  |  | Conversion (%) (PAD4; [1]): 100% |
| F-F-D-S-K-K-L-H-R-D-H-M-E-S-D (FFDSKKLHRDHMESD) [Peptide 0612-31] |  |  |  | Conversion (%) (PAD4; [1]): 88% |
